Source: publication PMC5404835

Target: C-peptide-mCherry generated from RINS1 (human)
Assay: western blot of cell lysate (band size); lysates of MIN6 cells expressing RINS1 (lysis buffer 10 mM Tris/Cl pH 7.5, 150 mM NaCl, 0.5 mM EDTA, 0.5% NP-40), NuPAGE 4-12% Bis-Tris gel, anti-mCherry antibody

stoichiometry N: 2
Substance: C-peptide-mCherry generated from RINS1 (domain or fragment)
